Several values for one entry are separate records, joined by “and”; a condition that tells them apart may be missing. Identical values can stand only once.
How the values were obtained:
[1] = biological target: HALO::PLP^584-1811 WT (purified from Sf9) (Drosophila); experiment: mass photometry
[2] = biological target: KHC + LC (Kinesin-1 HC-LCs complex) (Drosophila) (UniProt P17210); experiment: BLI
[3] = biological target: KHC^Δh2 + LC (Drosophila) (UniProt P17210); experiment: BLI

- stoichiometry N [1]: 2 and 4
- Kd [2]: 1700 nM
- Kd [3]: 65 nM
Substance: HALO::PLP^584-1811 WT (purified from Sf9) (domain or fragment)
